We go through four molecules from US8013123B2 (B.R.A.H.M.S. GmbH, priority 2004, dated 2011).

Ends that are not written are not given here. Some results are limits rather than exact numbers.

A short description of series [1]: Stability of proenkephalin fragments and enkephalins ex vivo (plasma, liquor). Format: in vitro ADME. The source says: In one embodiment the invention is based on and uses the discovered long term stability of proenkephalin and enkephalin-fp ex vivo in plasma (FIG. 3a). […] Proenkephalin and enkephalin-fp are stable as well in liquor.
A further series concerns B- and T-lymphocytes. The following applies: cited from earlier work.
Series [2] has as its system gram-positive bacteria like Streptococcus aureus, Bacillus megaterium and Micrococcus luteus. Particulars: cited from earlier work.
In series [3] the test system is gram-negative bacteria like Escherichia coli. The following applies: cited from earlier work.

As a reminder, the half-life is the time needed for the level to fall by half in the phase considered. Low readings indicate rapid decline, high ones slow decline. On to “DAEEDDSLANSSDLLKELLETGDNRERSHHQDGSDNEEEVS [enkephalin-fp]”, for which the half-life in series [1] (ex vivo in plasma) was more than 24 h. In addition, the stability in liquor result in series [1] is listed as “stable”.
In the case of methionine enkephalin [Met-ENK], in the series with B- and T-lymphocytes, the proliferation result is recorded as “stimulates the proliferation”.

B1: Synenkephalin: PENK-A derived peptide with antibacterial properties (peptide, UniProt P01210 25-97, looked up)
Synenkephalin: ECSQDCATCSYRLVRPADINFLACVMECEGKLPSLKIWETCKELLQLSKPELPQDGTSTLRENSKPEESHLLA
modifications: Synenkephalin
With B1, the antibacterial function entry in series [2] is “antibacterial properties”. Besides, the “antibacterial function / growth inhibition” value in series [3] is reported as “antibacterial properties”.

B2: proenkephalin: precursor of the enkephalins, Sequence ID 1, including its fragments (protein)
chain: ECSQDCATCSYRLVRFADINFLACVMECEGKLPSLKIWETCKELLQLSKPELPQDGTSTLRENSKPEESHLLAKRYGGFMKRYGGFMKKMDELYPMEPEEEANGSEILAKRYGGFMKKNAEEDDSLANSSDLLKELLETGDNRERSHHQDGSDNEEEVSKRYGGFMRGLKRSPQLEDEAKELQKRYGGFMRRVGRPEWWMDYQKRYGGFLKRFAEALPSDEEGESYSKEVPEMEKRYGGFMRF
Regarding B2, in series [1], the stability in liquor result is “stable”. Further, the in vivo half-life entry in the series “In vivo half-life” is reported as “about 24 hours”.
